Laboratory results published in article PMC7954794, “Protein context shapes the specificity of SH3 domain-mediated interactions in vivo” (Nature Communications, 2021).

Test system: growth of yeast strains under 51 stress conditions
Test: Growth assays in 51 stress conditions (Fig. 1E-F, S2D, S5B)
Type: cell-based, Saccharomyces cerevisiae
Parameters: key to Growth (Fig. S2D) / growth of ABP1 SH3-swapped strains in stress condition: log2 colony size, average of median per strain (growth score)
Conditions: FigS2D
How it was run: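 Yeast WT, SH3-deleted, KO, SH3-swapped and SH3-shuffled strains pinned in 1536 format, 12 replicates each; pregrown on YPD 2 days at 30 °C, then replicated onto 51 media at 37 °C and imaged every 2 h. Growth score = mean of per-plate median log2 colony size at 74 h.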

B1: YSC84 (protein, UniProt P32793 1-468, looked up)
Protein YSC84: MGINNPIPRSLKSETKKAAKVLRSFVKPNQVFGADQVIPPYVLKRAKGLAIITVLKAGFLFSGRAGSGVIVARLKDGTWSAPSAIAMAGAGAGGMVGVELTDFVFILNSEEAVRSFSEFGTITLGGNVSVSAGPLGRSAEAAASASTGGVSAVFAYSKSKGLFAGVSVEGSAILERREANRKFYGDNCTSKMILSGRVKVPPAADPLLRILESRAFNFTRHDHDDNASGDDFYDDGQYSDNTSHYYDDIPDSFDSTDESSTRPNTRSSRRRGMSLGSRSRYDDDYDDDGYGRGRGYGDFDSEDEDYDYGRSPNRNSSRNRGPQIDRGTKPRANTRWEDDLYDRDTEYSRPNHSGRDYDNTRGNRRGYGRERGYSLGHGPTHPSNMSNVDDLSHKMSKTGLGNESTATNSATPTAVALYNFAGEQPGDLAFKKGDVITILKKSDSQNDWWTGRTNGKEGIFPANYVRVS
growth of ABP1 SH3-swapped strains in stress condition (Bathophenanthroline.0.1uM): 10.863
growth of ABP1 SH3-swapped strains in stress condition (Bathophenanthroline.10uM): 10.6791
growth of ABP1 SH3-swapped strains in stress condition (Bathophenanthroline.1uM): 10.8306
growth of ABP1 SH3-swapped strains in stress condition (CaCl2.100mM): 10.8211
growth of ABP1 SH3-swapped strains in stress condition (CaCl2.250mM): 10.7492
growth of ABP1 SH3-swapped strains in stress condition (CaCl2.500mM): 10.2924
growth of ABP1 SH3-swapped strains in stress condition (Caffein.10mM): 10.0875
growth of ABP1 SH3-swapped strains in stress condition (Caffein.2mM): 11.0461
growth of ABP1 SH3-swapped strains in stress condition (CdCl2.100uM): 9.612
growth of ABP1 SH3-swapped strains in stress condition (CdCl2.10uM): 10.8942
growth of ABP1 SH3-swapped strains in stress condition (CdCl2.50uM): 9.965
growth of ABP1 SH3-swapped strains in stress condition (CuSO4.1mM): 10.4219
growth of ABP1 SH3-swapped strains in stress condition (CuSO4.5mM): 8.049
growth of ABP1 SH3-swapped strains in stress condition (Cycloheximide.0.05.uM): 11.0738
growth of ABP1 SH3-swapped strains in stress condition (Cycloheximide.0.2.uM): 10.6488
growth of ABP1 SH3-swapped strains in stress condition (Cycloheximide.0.5.uM): 10.1375
growth of ABP1 SH3-swapped strains in stress condition (DMSO.2.): 11.0761
growth of ABP1 SH3-swapped strains in stress condition (DMSO.6.): 9.8918
growth of ABP1 SH3-swapped strains in stress condition (DMSO.8.): 9.375
growth of ABP1 SH3-swapped strains in stress condition (Ethanol.2.): 10.7982
growth of ABP1 SH3-swapped strains in stress condition (Ethanol.6.): 10.2832
growth of ABP1 SH3-swapped strains in stress condition (Ethanol.8.): 10.0513
growth of ABP1 SH3-swapped strains in stress condition (Galactose.2.): 10.753
growth of ABP1 SH3-swapped strains in stress condition (Glycerol.2.): 9.905
growth of ABP1 SH3-swapped strains in stress condition (Hydroxyurea.25mM): 10.7776
growth of ABP1 SH3-swapped strains in stress condition (Hygromycin.190uM): 10.9721
growth of ABP1 SH3-swapped strains in stress condition (Hygromycin.19uM): 10.9865
growth of ABP1 SH3-swapped strains in stress condition (Hygromycin.95uM): 11.0398
growth of ABP1 SH3-swapped strains in stress condition (MMS.0.004.): 10.997
growth of ABP1 SH3-swapped strains in stress condition (MMS.0.02.): 10.758
growth of ABP1 SH3-swapped strains in stress condition (MMS.0.04.): 10.0132
growth of ABP1 SH3-swapped strains in stress condition (Menadione.100uM): 10.5944
growth of ABP1 SH3-swapped strains in stress condition (Menadione.200uM): 10.563
growth of ABP1 SH3-swapped strains in stress condition (Menadione.50uM): 10.853
growth of ABP1 SH3-swapped strains in stress condition (NaCl.0.25M): 10.8517
growth of ABP1 SH3-swapped strains in stress condition (NaCl.1M): 9.6266
growth of ABP1 SH3-swapped strains in stress condition (Nitroquinoline.10uM): 10.6185
growth of ABP1 SH3-swapped strains in stress condition (Nitroquinoline.50uM): 10.6333
growth of ABP1 SH3-swapped strains in stress condition (Nystatin.0.01uM): 10.9762
growth of ABP1 SH3-swapped strains in stress condition (Nystatin.0.1uM): 10.9958
growth of ABP1 SH3-swapped strains in stress condition (Raffinose.2.): 11.0249
growth of ABP1 SH3-swapped strains in stress condition (Rapamycin.10nM): 9.871
growth of ABP1 SH3-swapped strains in stress condition (Rapamycin.50nM): 9.5402
growth of ABP1 SH3-swapped strains in stress condition (SC.pH3): 10.4227
growth of ABP1 SH3-swapped strains in stress condition (SC.pH6): 10.9991
growth of ABP1 SH3-swapped strains in stress condition (SDS.0.01.): 11.0315
growth of ABP1 SH3-swapped strains in stress condition (SDS.0.02.): 11.0179
growth of ABP1 SH3-swapped strains in stress condition (SDS.0.05.): 10.9653
growth of ABP1 SH3-swapped strains in stress condition (Sorbitol.10mM): 10.9675
growth of ABP1 SH3-swapped strains in stress condition (Sorbitol.1mM): 11.0498
growth of ABP1 SH3-swapped strains in stress condition (Sorbitol.5mM): 10.8766
